In paper PMC5823975, “Ubiquitin-Mediated Regulation of RIPK1 Kinase Activity Independent of IKK and MK2” (Molecular Cell, 2018):
Read-outs that look alike come from different tables or passages of the source. One block for each molecule: values may come before it.

Assays:
[1] = biological target: cIAP2 BIR1 (Homo sapiens) (UniProt Q13489); conditions: cited from earlier work
[2] = biological target: T1, TRAF2 segment (recombinant, ITC) (human, UniProt Q12933 1-501); experiment: ITC; cIAP2 protein (2-4 mM) injected into 0.20 mM TRAF2; 16°C; 25 mM Tris-HCl pH 8.0, 150 mM NaCl; MicroCal ITC200
T1 construct: human TRAF2 segment; it compares with Zheng et al. (2010); source: E. coli BL21 (DE3), purified (Ni-Sepharose, HiTrap Q, Superdex 200); not shown: His-SUMO, N-terminal, cleaved
T1 sequence (looked up): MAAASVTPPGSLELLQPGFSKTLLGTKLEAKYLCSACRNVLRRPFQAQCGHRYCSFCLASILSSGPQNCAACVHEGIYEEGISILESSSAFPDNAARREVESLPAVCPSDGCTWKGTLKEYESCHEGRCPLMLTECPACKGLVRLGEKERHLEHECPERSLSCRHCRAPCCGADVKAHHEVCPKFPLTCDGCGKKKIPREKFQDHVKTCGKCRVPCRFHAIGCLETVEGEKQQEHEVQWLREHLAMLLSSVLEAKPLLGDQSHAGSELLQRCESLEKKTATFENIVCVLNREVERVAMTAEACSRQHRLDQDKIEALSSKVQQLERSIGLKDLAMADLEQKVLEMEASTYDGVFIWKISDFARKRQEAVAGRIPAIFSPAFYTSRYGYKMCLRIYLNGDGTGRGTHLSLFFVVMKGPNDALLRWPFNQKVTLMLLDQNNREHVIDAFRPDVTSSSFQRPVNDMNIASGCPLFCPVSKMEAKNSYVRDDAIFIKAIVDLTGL

Molecule: TRAF2 (from UniProt Q12933)
Kd [1]: 1700 nM

Kd [2]: 480000 nM
Molecule: UBA domain of cIAP2 (from UniProt Q13489 372-425) (domain or fragment)

Kd ([2]; both partners purified): 430 nM
B1: cIAP2 segment with the BIR1 in conjunction with the UBA domain (domain or fragment)
chain: LSCELYRMSTYSTFPAGVPVSERSLARAGFYYTGVNDKVKCFCCGLMLDNWKRGDSPTEKHKKLYPSCRFVQSLNSVNNLEATSQPTFPSSVTNSTHSLLPGTENSGYFRGSYSNSPSNPVNSRANQDFSALMRSSYHCAMNNENARLLTFQTWPLTFLSPTDLAKAGFYYIGPGDRVACFACGGKLSNWEPKDNAMSEHLRHFPKCPFIENQLQDTSRYTVSNLSMQTHAARFKTFFNWPSSVLVNPEQLASAGFYYVGNSDDVKCFCCDGGLRCWESGDDPWVQHAKWFPRCEYLIRIKGQEFIRQVQASYPHLLEQLLSTSDSPGDENAESSIIHFEPGEDHSEDAIMMNTPVINAAVEMGFSRSLVKQTVQRKILATGENYRLVNDLVLDLLNAEDEIREEERERAT
modifications: Zn2+ bound by the BIR domains
